Numbered stars: 1 amine (or outer) side, 2 acyl side, 3 side chain; on linkers, the order of the positions; unused ones are H or OH. Bridge positions count the residues as written; N and C are the ends. Square brackets hold non-standard residues; d marks the D form. Ends that are not written are not given here. * marks the point of attachment. (S)‑4‑Piperazine‑2‑carboxylic acid = (S)-4-piperazine-2-carboxylic acid; 4‑Aminomethylphenylacetic acid = O=C(Cc1ccc(CN[*:1])cc1)[*:2]; NHCH2(1,3-C6H4)CH2CO = O=C(Cc1cccc(CN[*:1])c1)[*:2]; Phe(3-COOH) = N[C@@H](Cc1cccc(C(=O)O)c1)C(=O)O; Piperidin‑4‑ylacetic acid = O=C(CC1CCNCC1)*; Oic = O=C(O)[C@@H]1C[C@@H]2CCCC[C@@H]2N1; PEG6 = NCCOCCOCCOCCOCCOCCOCCC(=O)O; tBuAla = CC(C)(C)C[C@H](N)C(=O)O; Pen = CC(C)(S)[C@H](N)C(=O)O; NMeC = CN[C@@H](CS)C(=O)O; PEG3 = NCCOCCOCCOCCC(=O)O; Orn = NCCC[C@H](N)C(=O)O; Sar = CNCC(=O)O
T1: Recombinant human MASP1 enzyme (fragment corresponding to amino acids 297-699, C-terminal His Tag) (human, UniProt P48740 297-699)
T1 sequence: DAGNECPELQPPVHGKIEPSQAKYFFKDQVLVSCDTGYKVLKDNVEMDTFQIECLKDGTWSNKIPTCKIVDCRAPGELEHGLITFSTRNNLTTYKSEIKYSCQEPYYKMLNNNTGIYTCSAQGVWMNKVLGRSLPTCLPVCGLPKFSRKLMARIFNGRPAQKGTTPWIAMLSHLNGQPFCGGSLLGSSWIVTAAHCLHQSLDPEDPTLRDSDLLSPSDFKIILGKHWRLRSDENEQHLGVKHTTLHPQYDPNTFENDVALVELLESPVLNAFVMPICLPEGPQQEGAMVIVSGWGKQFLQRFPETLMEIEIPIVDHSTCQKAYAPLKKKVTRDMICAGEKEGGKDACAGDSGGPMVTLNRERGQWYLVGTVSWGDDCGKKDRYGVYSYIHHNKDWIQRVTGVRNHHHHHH


Columns and labels:
[1] = target: T1, Recombinant human MASP1 enzyme …; assay: cell-based or functional assay
[2] = target: Recombinant human MASP2 enzyme (fragment corresponding to amino acids 297-686, C-terminal His Tag) (human, UniProt O00187 297-686); assay: cell-based or functional assay
Sequence of Recombinant human MASP2 enzyme (fragment corresponding to amino acids 297-686, C-terminal His Tag) (O00187 other isoform, or with tags, fused parts or gaps limits assumed): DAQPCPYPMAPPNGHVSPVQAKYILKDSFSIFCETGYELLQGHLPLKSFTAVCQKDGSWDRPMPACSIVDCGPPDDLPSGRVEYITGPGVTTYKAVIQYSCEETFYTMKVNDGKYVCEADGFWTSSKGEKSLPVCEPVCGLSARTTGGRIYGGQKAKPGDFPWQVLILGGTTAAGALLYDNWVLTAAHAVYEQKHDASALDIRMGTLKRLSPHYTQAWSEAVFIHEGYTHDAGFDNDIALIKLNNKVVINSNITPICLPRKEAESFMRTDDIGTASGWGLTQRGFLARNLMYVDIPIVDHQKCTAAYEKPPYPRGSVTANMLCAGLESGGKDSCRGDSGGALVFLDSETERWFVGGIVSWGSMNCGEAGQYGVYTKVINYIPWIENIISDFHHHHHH

human MASP1 IC50 [1] [nM]	human MASP2 IC50 [2] [nM]	Binder
1.9	110	[Orn]ICSRSLP[Oic]I[Pen]IPD-OH (disulfide 3-11; N-terminus assumed; SMILES CC[C@H](C)[C@H](NC(=O)[C@@H](N)CCCN)C(=O)N[C@H]1CSSC(C)(C)[C@@H](C(=O)N[C@H](C(=O)N2CCC[C@H]2C(=O)N[C@@H](CC(=O)O)C(=O)O)[C@@H](C)CC)NC(=O)[C@H]([C@@H](C)CC)NC(=O)[C@@H]2C[C@@H]3CCCC[C@@H]3N2C(=O)[C@@H]2CCCN2C(=O)[C@H](CC(C)C)NC(=O)[C@H](CO)NC(=O)[C@H](CCCNC(=N)N)NC(=O)[C@H](CO)NC1=O) [(Orn)-IC+SRSLP-(Oic)-I-(Pen)+IPD-OH]
3.7	37	[dA]ICSRSLP[Oic]I[Pen]IP[NHCH2(1,3-C6H4)CH2CO]-OH (disulfide 3-11; N-terminus assumed; SMILES CC[C@H](C)[C@H](NC(=O)[C@@H](C)N)C(=O)N[C@H]1CSSC(C)(C)[C@@H](C(=O)N[C@H](C(=O)N2CCC[C@H]2C(=O)NCc2cccc(CC(=O)O)c2)[C@@H](C)CC)NC(=O)[C@H]([C@@H](C)CC)NC(=O)[C@@H]2C[C@@H]3CCCC[C@@H]3N2C(=O)[C@@H]2CCCN2C(=O)[C@H](CC(C)C)NC(=O)[C@H](CO)NC(=O)[C@H](CCCNC(=N)N)NC(=O)[C@H](CO)NC1=O) [aIC+SRSLP-(Oic)-I-(Pen)-+IP-(3-Aminomethylphenylacetic acid)-OH]
3	35	PICSRS[tBuAla]PPI[Pen]IPD-OH (disulfide 3-11; N-terminus assumed; SMILES CC[C@H](C)[C@H](NC(=O)[C@@H]1CCCN1)C(=O)N[C@H]1CSSC(C)(C)[C@@H](C(=O)N[C@H](C(=O)N2CCC[C@H]2C(=O)N[C@@H](CC(=O)O)C(=O)O)[C@@H](C)CC)NC(=O)[C@H]([C@@H](C)CC)NC(=O)[C@@H]2CCCN2C(=O)[C@@H]2CCCN2C(=O)[C@H](CC(C)(C)C)NC(=O)[C@H](CO)NC(=O)[C@H](CCCNC(=N)N)NC(=O)[C@H](CO)NC1=O) [(beta-P)-IC+SRS-((tBu)A)-PPI-(Pen)+IPD-OH]
26	18	{Piperidin‑4‑ylacetic acid}-ICSRS[tBuAla]PPICIPD-OH (disulfide 2-10; SMILES CC[C@H](C)[C@H](NC(=O)CC1CCNCC1)C(=O)N[C@H]1CSSC[C@@H](C(=O)N[C@H](C(=O)N2CCC[C@H]2C(=O)N[C@@H](CC(=O)O)C(=O)O)[C@@H](C)CC)NC(=O)[C@H]([C@@H](C)CC)NC(=O)[C@@H]2CCCN2C(=O)[C@@H]2CCCN2C(=O)[C@H](CC(C)(C)C)NC(=O)[C@H](CO)NC(=O)[C@H](CCCNC(=N)N)NC(=O)[C@H](CO)NC1=O) [(Piperidin-4-ylacetic acid)-IC+SRS-((tBu)A)-PPIC+IPD-OH]
5.85	175	[Orn]ICSRS[tBuAla]PPI[NMeC]IPD-OH (disulfide 3-11; N-terminus assumed; SMILES CC[C@H](C)[C@H](NC(=O)[C@@H](N)CCCN)C(=O)N[C@H]1CSSC[C@@H](C(=O)N[C@H](C(=O)N2CCC[C@H]2C(=O)N[C@@H](CC(=O)O)C(=O)O)[C@@H](C)CC)N(C)C(=O)[C@H]([C@@H](C)CC)NC(=O)[C@@H]2CCCN2C(=O)[C@@H]2CCCN2C(=O)[C@H](CC(C)(C)C)NC(=O)[C@H](CO)NC(=O)[C@H](CCCNC(=N)N)NC(=O)[C@H](CO)NC1=O) [(Orn)-IC+SRS-((tBu)A)-PPI-((N-Me)C)+IPD-OH]

Further lines, the binder ahead of its results:

Binder	human MASP1 IC50 [1] [nM]	human MASP2 IC50 [2] [nM]
[Sar]ICSRSLP[Oic]I[Pen]IP[PEG3]-OH (disulfide 3-11; N-terminus assumed; SMILES CC[C@H](C)[C@H](NC(=O)CNC)C(=O)N[C@H]1CSSC(C)(C)[C@@H](C(=O)N[C@H](C(=O)N2CCC[C@H]2C(=O)NCCOCCOCCOCCC(=O)O)[C@@H](C)CC)NC(=O)[C@H]([C@@H](C)CC)NC(=O)[C@@H]2C[C@@H]3CCCC[C@@H]3N2C(=O)[C@@H]2CCCN2C(=O)[C@H](CC(C)C)NC(=O)[C@H](CO)NC(=O)[C@H](CCCNC(=N)N)NC(=O)[C@H](CO)NC1=O) [((N-Me)G)-IC+SRSLP-(Oic)-I-(Pen)+IP-(PEG2(13 atoms))-OH]	4.5	97
[Sar]ICSRSLP[Oic]I[Pen]IPX-OH (disulfide 3-11; not fully specified (residue 14); printed as ((N-Me)G)-IC+SRSLP-(Oic)-I-(Pen)+IP-(*Dap)-OH; also: C-terminal Dap joined through its 3-amino group) [((N-Me)G)-IC+SRSLP-(Oic)-I-(Pen)+IP-(*Dap)-OH]	6.6	55
[Sar]ICSRSLP[Oic]I[Pen]IP[Phe(3-COOH)]-OH (disulfide 3-11; N-terminus assumed; SMILES CC[C@H](C)[C@H](NC(=O)CNC)C(=O)N[C@H]1CSSC(C)(C)[C@@H](C(=O)N[C@H](C(=O)N2CCC[C@H]2C(=O)N[C@@H](Cc2cccc(C(=O)O)c2)C(=O)O)[C@@H](C)CC)NC(=O)[C@H]([C@@H](C)CC)NC(=O)[C@@H]2C[C@@H]3CCCC[C@@H]3N2C(=O)[C@@H]2CCCN2C(=O)[C@H](CC(C)C)NC(=O)[C@H](CO)NC(=O)[C@H](CCCNC(=N)N)NC(=O)[C@H](CO)NC1=O) [((N-Me)G)-IC+SRSLP-(Oic)-I-(Pen)+IP-((3-Carboxy)F)-OH]	5.4	64
[Sar]ICSRSLP[Oic]I[Pen]IP[NHCH2(1,3-C6H4)CH2CO]-OH (disulfide 3-11; N-terminus assumed; SMILES CC[C@H](C)[C@H](NC(=O)CNC)C(=O)N[C@H]1CSSC(C)(C)[C@@H](C(=O)N[C@H](C(=O)N2CCC[C@H]2C(=O)NCc2cccc(CC(=O)O)c2)[C@@H](C)CC)NC(=O)[C@H]([C@@H](C)CC)NC(=O)[C@@H]2C[C@@H]3CCCC[C@@H]3N2C(=O)[C@@H]2CCCN2C(=O)[C@H](CC(C)C)NC(=O)[C@H](CO)NC(=O)[C@H](CCCNC(=N)N)NC(=O)[C@H](CO)NC1=O) [((N-Me)G)-IC+SRSLP-(Oic)-I-(Pen)+IP-(3-Aminomethylphenylacetic acid)-OH]	9.6	172
[Sar]ICSRSLP[Oic]I[Pen]IPDD-OH (disulfide 3-11; N-terminus assumed; SMILES CC[C@H](C)[C@H](NC(=O)CNC)C(=O)N[C@H]1CSSC(C)(C)[C@@H](C(=O)N[C@H](C(=O)N2CCC[C@H]2C(=O)N[C@@H](CC(=O)O)C(=O)N[C@@H](CC(=O)O)C(=O)O)[C@@H](C)CC)NC(=O)[C@H]([C@@H](C)CC)NC(=O)[C@@H]2C[C@@H]3CCCC[C@@H]3N2C(=O)[C@@H]2CCCN2C(=O)[C@H](CC(C)C)NC(=O)[C@H](CO)NC(=O)[C@H](CCCNC(=N)N)NC(=O)[C@H](CO)NC1=O) [((N-Me)G)-IC+SRSLP-(Oic)-I-(Pen)+IPDD-OH]	0.72	40
[Sar]ICSRSLP[Oic]I[Pen]I[(S)‑4‑Piperazine‑2‑carboxylic acid]-OH (disulfide 3-11) [((N-Me))-GIC+SRSLP-(Oic)-I-(Pen)+I-((S)-4-Piperazine-2-carboxylic acid)-OH]	2.4	78
[Sar]ICSRS[tBuAla]PPI[Pen]IP[Phe(3-COOH)]-OH (disulfide 3-11; N-terminus assumed; SMILES CC[C@H](C)[C@H](NC(=O)CNC)C(=O)N[C@H]1CSSC(C)(C)[C@@H](C(=O)N[C@H](C(=O)N2CCC[C@H]2C(=O)N[C@@H](Cc2cccc(C(=O)O)c2)C(=O)O)[C@@H](C)CC)NC(=O)[C@H]([C@@H](C)CC)NC(=O)[C@@H]2CCCN2C(=O)[C@@H]2CCCN2C(=O)[C@H](CC(C)(C)C)NC(=O)[C@H](CO)NC(=O)[C@H](CCCNC(=N)N)NC(=O)[C@H](CO)NC1=O) [((N-Me)G)-IC+SRS-((tBu)A)-PPI-(Pen)+IP-((3-Carboxy)F)-OH]	2.8	25
[Sar]ICSRSLP[Oic]I[Pen]IP[PEG6]-OH (disulfide 3-11; N-terminus assumed; SMILES CC[C@H](C)[C@H](NC(=O)CNC)C(=O)N[C@H]1CSSC(C)(C)[C@@H](C(=O)N[C@H](C(=O)N2CCC[C@H]2C(=O)NCCOCCOCCOCCOCCOCCOCCC(=O)O)[C@@H](C)CC)NC(=O)[C@H]([C@@H](C)CC)NC(=O)[C@@H]2C[C@@H]3CCCC[C@@H]3N2C(=O)[C@@H]2CCCN2C(=O)[C@H](CC(C)C)NC(=O)[C@H](CO)NC(=O)[C@H](CCCNC(=N)N)NC(=O)[C@H](CO)NC1=O) [((N-Me)G)-IC+SRSLP-(Oic)-I-(Pen)+IP-(PEG5(22 atoms))-OH]	4	51
[Sar]ICSRSLP[Oic]I[Pen]IP[PEG4‑CH2CO2H (15 atoms)]-OH (disulfide 3-11) [((N-Me)G)-IC+SRSLP-(Oic)-I-(Pen)+IP-(PEG4-CH2CO2H (15 atoms))-OH]	1.8	58
[Sar]ICSRSLP[Oic]I[Pen]IP[4‑Aminomethylphenylacetic acid]-OH (disulfide 3-11; N-terminus assumed; SMILES CC[C@H](C)[C@H](NC(=O)CNC)C(=O)N[C@H]1CSSC(C)(C)[C@@H](C(=O)N[C@H](C(=O)N2CCC[C@H]2C(=O)NCc2ccc(CC(=O)O)cc2)[C@@H](C)CC)NC(=O)[C@H]([C@@H](C)CC)NC(=O)[C@@H]2C[C@@H]3CCCC[C@@H]3N2C(=O)[C@@H]2CCCN2C(=O)[C@H](CC(C)C)NC(=O)[C@H](CO)NC(=O)[C@H](CCCNC(=N)N)NC(=O)[C@H](CO)NC1=O) [((N-Me)G)-IC+SRSLP-(Oic)-I-(Pen)+IP-(4-Aminomethylphenylacetic acid)-OH]	3.8	61

Reference: US20210246166A1 (Bayer, published 2021)
